Data published in patent publication US20150315280A1 (Chugai, published 2015).

Molecular target: T1, mouse NR 10 (mouse, UniProt Q8K5B1 19-716)
T1 construct: In the proliferation assays it is expressed on Ba/F3 cells together with mouse OSMR, with which it forms the IL-31 receptor; also called mNR 10; IL-31RA
T1 sequence: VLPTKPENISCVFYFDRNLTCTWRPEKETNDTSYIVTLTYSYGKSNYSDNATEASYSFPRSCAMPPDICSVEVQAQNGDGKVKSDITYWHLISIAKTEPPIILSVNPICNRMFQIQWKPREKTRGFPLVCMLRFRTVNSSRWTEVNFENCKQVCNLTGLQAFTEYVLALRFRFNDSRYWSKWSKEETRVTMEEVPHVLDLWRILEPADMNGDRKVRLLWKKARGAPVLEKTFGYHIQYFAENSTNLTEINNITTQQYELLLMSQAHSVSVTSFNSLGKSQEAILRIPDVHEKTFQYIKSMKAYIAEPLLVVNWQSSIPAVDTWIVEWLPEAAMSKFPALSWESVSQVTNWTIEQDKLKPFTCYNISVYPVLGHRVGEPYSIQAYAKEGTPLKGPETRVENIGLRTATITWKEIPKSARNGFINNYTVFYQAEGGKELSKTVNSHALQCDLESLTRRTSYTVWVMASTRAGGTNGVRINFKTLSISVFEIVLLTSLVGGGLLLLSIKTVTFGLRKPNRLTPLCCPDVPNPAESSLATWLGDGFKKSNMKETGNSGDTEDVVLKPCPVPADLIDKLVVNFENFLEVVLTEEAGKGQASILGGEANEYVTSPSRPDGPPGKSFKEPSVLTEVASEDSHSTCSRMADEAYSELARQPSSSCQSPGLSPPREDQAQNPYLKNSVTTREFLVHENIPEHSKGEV
Experiment: immunohistochemical staining of auricles of chronic dermatitis model mice
Description: The expression of human NR 10 was reported to be enhanced in thickened epidermis of atopic dermatitis patients (Non-patent Document 1). Auricles of the above-described chronic dermatitis model mice were immunohistochemically stained.

B1: BM095 in which the constant region was replaced with that of human IgG (antibody, V domains shown)
VH: not shown
VL: LPVLTQPPSVSVAPGQTARITCGGNNIGSKTVYWYQQEPGQAPVLVVYDDTDRPAGIPERFSGANSGNTATLTISRVEAGDEADYYCQVWDSSTDHGVFGGGTKLTVLG
Question: Does B1 bind?
Answer: binds
